Usually stoichiometry N stands for a count of units in the complex or per binding partner.

In this assay the target is Venus-tagged carboxy-tail segment of CaV1.2 (UniProt P15381). As to the kind of experiment: FRET or BRET. A general note: BRET reads energy transfer from a luciferase to a nearby fluorophore.
Chain of UniProt P15381 (P15381 1525-2171): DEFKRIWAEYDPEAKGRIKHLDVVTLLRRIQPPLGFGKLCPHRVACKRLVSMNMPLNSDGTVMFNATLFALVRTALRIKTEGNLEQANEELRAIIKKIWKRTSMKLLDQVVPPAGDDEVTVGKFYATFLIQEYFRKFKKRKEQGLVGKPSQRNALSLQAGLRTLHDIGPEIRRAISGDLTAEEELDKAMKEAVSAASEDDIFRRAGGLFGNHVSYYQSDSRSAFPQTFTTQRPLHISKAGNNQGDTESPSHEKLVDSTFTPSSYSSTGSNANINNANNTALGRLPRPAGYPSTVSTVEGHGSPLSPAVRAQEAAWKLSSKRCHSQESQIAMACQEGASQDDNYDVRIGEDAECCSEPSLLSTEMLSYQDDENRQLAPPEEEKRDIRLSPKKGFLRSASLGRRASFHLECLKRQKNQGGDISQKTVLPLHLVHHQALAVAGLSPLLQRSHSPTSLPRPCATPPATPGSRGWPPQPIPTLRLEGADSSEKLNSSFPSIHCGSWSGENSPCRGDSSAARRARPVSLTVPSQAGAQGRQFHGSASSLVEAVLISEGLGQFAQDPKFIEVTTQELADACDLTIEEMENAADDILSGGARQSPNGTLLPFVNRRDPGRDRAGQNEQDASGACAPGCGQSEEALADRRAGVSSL

With “Cerulean-tagged calmodulin (CaM) (from UniProt P0DP23 1-149) (natural protein)”, the stoichiometry N stood at 1.

The values above are taken from PMC9009374.
